Protein stability index data for 36 sequences are collected here from the supplement of paper PMC10567573.

The nature of this data set: protein stability index of a GFP-peptide fusion (GPS, HEK-293T) (PSI 1-6); higher = more stable. The conditions noted are these: c terminus: a fixed tail appended.

± gives the standard deviation.
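Further: 24-mer peptide tiles fused after GFP, lentivirally expressed, FACS-sorted into six equal bins by GFP/DsRed ratio, decoded by Illumina sequencing, PSI is the read-weighted mean bin number.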

Regarding IHDLDLTLLNPRMIVDVTPYMNPS [CLCN6], the protein stability index by setting is: (treatment: DMSO) 2.29 ± 0.19; (treatment: MLN4924 1 uM, 8 h) 2.26 ± 0.25.

Turning to IHLSAPCIYSEVMEALKLQPGLSF [PCMTD1], the protein stability index runs as follows: (treatment: DMSO) 2.33 ± 0.67; (treatment: MLN4924 1 uM, 8 h) 2.61 ± 0.34.

Take IIKQLQKGVQQKRPSEAQSVILRR [DENND6A]: the protein stability index runs as follows: (treatment: DMSO) 3.08 ± 0.2; (treatment: MLN4924 1 uM, 8 h) 2.9 ± 0.14.

On to IKEEENSEEELAAATTSKEQEPIG [MYBL2], for which the protein stability index is, setting by setting: (treatment: DMSO) 5.7 ± 0.31; (treatment: MLN4924 1 uM, 8 h) 5.72 ± 0.21.

With IKEVIFMSDKYHDSDEATAARLLF [DCTD], the protein stability index runs as follows: (treatment: DMSO) 2.57 ± 0.27; (treatment: MLN4924 1 uM, 8 h) 2.62 ± 0.32.

For the sequence IKRGDILPPEKGREVAKELGLPYY [RHOBTB1], the protein stability index is 3.2 ± 0.22 (treatment: DMSO) and 3.37 ± 0.39 (treatment: MLN4924 1 uM, 8 h).

IKTAVNLPLERDAESFLLKSPIAP [CDC25B]: the protein stability index is, setting by setting: (treatment: DMSO) 3.23 ± 0.24; (treatment: MLN4924 1 uM, 8 h) 3.14 ± 0.36.

As for ILAIIAKEGDCAPEEKIWEELSVL [MAGEA6], the protein stability index runs as follows: (treatment: DMSO) 2.44 ± 0.26; (treatment: MLN4924 1 uM, 8 h) 2.48 ± 0.43.

Take ILGRGLQEYQLPYQRVLPLPIFTP [TCAP]: the protein stability index is 2.25 ± 0.21 (treatment: DMSO) and 2.37 ± 0.12 (treatment: MLN4924 1 uM, 8 h).

As to ILHIMVKVVKGHRPELPPVCRARP [RIPK4], the protein stability index (treatment: DMSO) was determined as 3.35 ± 0.92 and the protein stability index (treatment: MLN4924 1 uM, 8 h) amounted to 2.4 ± 0.36.

ILKLEQENCTLVTTFRGHTGGVTA [WDFY2]: the protein stability index worked out at 2.79 ± 0.13 (treatment: DMSO) and 3.51 ± 0.5 (treatment: MLN4924 1 uM, 8 h).

On to ILKRLLKEQHLWDVDLLDSKVIEI [DLC1], for which the protein stability index was 2.44 ± 1 (treatment: DMSO) and 2.02 ± 0.68 (treatment: MLN4924 1 uM, 8 h).

Take ILNSMNSLRKSNTLCDVTLRVEQK [KLHL12]: the protein stability index was 2.65 ± 0.18 (treatment: DMSO) and 2.9 ± 0.33 (treatment: MLN4924 1 uM, 8 h).

As to ILQLEECCTHNNSATLSWKQPPLS [TRIM9], the protein stability index is, setting by setting: (treatment: DMSO) 2.67 ± 0.42; (treatment: MLN4924 1 uM, 8 h) 2.78 ± 0.23.

As to INCKGRSKSNLGWTPLHLACYFGH [OSBPL1A], the protein stability index (treatment: DMSO) was 2.63 ± 0.32 and the protein stability index (treatment: MLN4924 1 uM, 8 h) came out at 2.28 ± 0.32.

In turn, INQLTFIMDANQTYLVSERLEREE [FAF2] showed a protein stability index (treatment: DMSO) of 3.17 ± 0.15 and a protein stability index (treatment: MLN4924 1 uM, 8 h) of 3.15 ± 0.21.

Regarding INRLVGLQNTYMGYLDYRKKAIKD [GLT8D2], the protein stability index was found to be 2.7 ± 0.3 (treatment: DMSO) and 3.01 ± 0.05 (treatment: MLN4924 1 uM, 8 h).

Turning to INSRRWCSNLTPNVPNVCRMYCSD [SPACA3], the protein stability index by setting is: (treatment: DMSO) 2.13 ± 0.26; (treatment: MLN4924 1 uM, 8 h) 2.42 ± 0.33.

As for IPANVSNCNWFCEGSFNGSEKETM [KRT33B], the protein stability index is, setting by setting: (treatment: DMSO) 4.19 ± 0.15; (treatment: MLN4924 1 uM, 8 h) 4.07 ± 0.3.

Turning to IPPYSRASLKGYQWLKDKILSEEG [KCNAB2], the protein stability index is, setting by setting: (treatment: DMSO) 2.64 ± 0.45; (treatment: MLN4924 1 uM, 8 h) 3.02 ± 0.54.

On to IQGNIEYSCPATNECEITKRRRKS [ESRRG], for which the protein stability index is 4.85 ± 0.15 (treatment: DMSO) and 5.13 ± 0.25 (treatment: MLN4924 1 uM, 8 h).

On to IQSKDGKSPLHMTAVHGRFTRSQT [ANKRD44], for which the protein stability index is 3.84 ± 0.32 (treatment: DMSO) and 3.9 ± 0.36 (treatment: MLN4924 1 uM, 8 h).

Regarding IREQIKKYRRHFLRFCHNNKKAKR [EIF5], the protein stability index is, setting by setting: (treatment: DMSO) 2.35 ± 0.19; (treatment: MLN4924 1 uM, 8 h) 2.33 ± 0.16.

In turn, IRLCDMRASALCDRHTKFFEEPED [PPP2R2B] returned a protein stability index (treatment: DMSO) of 3.59 ± 0.11 and a protein stability index (treatment: MLN4924 1 uM, 8 h) of 3.77 ± 0.2.

On to ISDRYSPELRQLVLSLLSLEPAQR [NEK8], for which the protein stability index (treatment: DMSO) was determined as 2.66 ± 0.38 and the protein stability index (treatment: MLN4924 1 uM, 8 h) came to 2.3 ± 0.39.

With ISKMEPLEIPVETITSEVIEKCTT [CRY1], the protein stability index was determined as 4.08 ± 0.64 (treatment: DMSO) and 4.32 ± 0.2 (treatment: MLN4924 1 uM, 8 h).

For ISLVKREHDFLDRDAIEALCRRLN [DLC1], the protein stability index came out at 2.69 ± 0.18 (treatment: DMSO) and 2.8 ± 0.42 (treatment: MLN4924 1 uM, 8 h).

For the sequence ITALLNVSRRTSEACMTHLHYKWI [DUSP5], the protein stability index was 2.75 ± 0.53 (treatment: DMSO) and 2.54 ± 0.32 (treatment: MLN4924 1 uM, 8 h).

Regarding ITAPTEVEVMDETNCQKVLNMWCC [CSNK1G3], the protein stability index turned out to be 2.84 ± 0.29 (treatment: DMSO) and 2.98 ± 0.29 (treatment: MLN4924 1 uM, 8 h).

As to ITNQEELWKMKPRRNLEEDDYLHK [STEAP1], the protein stability index reads like this: (treatment: DMSO) 4.22 ± 0.41; (treatment: MLN4924 1 uM, 8 h) 4.02 ± 0.26.

For ITTLRVPVLRPMDLMVEATPRRVF [PPP2R2B], the protein stability index worked out at 2.52 ± 0.17 (treatment: DMSO) and 2.71 ± 0.27 (treatment: MLN4924 1 uM, 8 h).

IVCAQSSQSLWNRLSVLLNLLPAA [SMG5]: the protein stability index by setting is: (treatment: DMSO) 2.8 ± 0.31; (treatment: MLN4924 1 uM, 8 h) 2.99 ± 0.28.

Consider IVETLCIIWFSFELVVRFFACPSK [KCNA1], for which the protein stability index runs as follows: (treatment: DMSO) 3.11 ± 0.19; (treatment: MLN4924 1 uM, 8 h) 3.15 ± 0.32.

With IVRLRTIGELLAPAAPFDKKCGRE [WSB1], the protein stability index by setting is: (treatment: DMSO) 2.64 ± 0.2; (treatment: MLN4924 1 uM, 8 h) 2.85 ± 0.34.

On to IVRRRSRDVPESPQHAADTPKSGE [YJU2B], for which the protein stability index by setting is: (treatment: DMSO) 5.06 ± 0.25; (treatment: MLN4924 1 uM, 8 h) 5.21 ± 0.22.

For the sequence IVSNFNYFYHRETENEEQTQLTQN [KCNA4], the protein stability index runs as follows: (treatment: DMSO) 3.03 ± 0.12; (treatment: MLN4924 1 uM, 8 h) 3.38 ± 0.25.
